Experimental data taken from the supplement of paper PMC10567573.

Assay: protein stability index of a GFP-peptide fusion (GPS, HEK-293T) (PSI 1-6); higher = more stable
Conditions: parent: NP_006221.1; c terminus: native
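Note: lentivirally expressed fusion library, cells FACS-sorted into six equal-sized GFP/DsRed ratio bins, PSI computed from sequencing read fractions per bin weighted by bin number.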

CQPISFSGFGAEDDDLGGLGLGPRQ [POLD2 addRQ]
protein stability index: 4.81
